The results in this text go back to patent publication US7410774B1, “Compounds modulating sister chromatid separation and method for identifying same” (Boehringer Ingelheim International GmbH, priority 1999, dated 2008).

The target in this assay is T1, Esp1 (Saccharomyces cerevisiae, UniProt Q03018).
T1 construct: made in house; host or cells: S. cerevisiae W303 derivative overexpressing Esp1p from the GAL1-10 promoter; soluble cell extract, not purified
Description: In vitro assay for yeast Esp1p activity (Esp1-dependent Scc1p cleavage). It counts as biochemical. The following applies: yeast chromatin incubated with extract over-producing Esp1; Western blot. The method, then:
A crude Triton X-100 insoluble chromatin preparation was obtained from yeast cells as described (Liang and Stillman, 1997). The pelleted chromatin was resuspended in yeast cell extracts that had been prepared similar to the supernatant fraction of the chromatin preparation. One tenth volume of an ATP regenerating system was added (50 mM HEPES/KOH pH-7.5, 100 mM KCl, 10 mM MgCl2, 10 mM ATP, 600 mM creatin phosphate, 1.5 mg/ml phophocreatin kinase, 1 mM DTT, 10% glycerol). Reactions were incubated for 10 min at 25° C. with shaking and stopped on ice. The chromatin fraction was separated again from the supernatant by centrifugation, and resuspended in buffer EBX (Liang and Stillman, 1997). Equivalent aliquots of supernatant and chromatin pellet were analysed by SDS-PAGE and Western blotting. Scc1-HA was detected with the anti-HA monoclonal antibody 16B12 (Boehringer Mannheim). […]
Chromatin was prepared from a strain containing Scc1p tagged with HA epitopes that was arrested in metaphase with nocodazol. The proteins in the chromatin preparation were resolved by SDS-PAGE and Scc1-HA was detected by western blotting (FIG. 2, lane 1). […] Aliquots of the supernatant fraction and the chromatin fraction of each reaction were analysed.
(Immunoblotting shows a protein as a band on a membrane.)

T1 sequence (Q03018 whole entry): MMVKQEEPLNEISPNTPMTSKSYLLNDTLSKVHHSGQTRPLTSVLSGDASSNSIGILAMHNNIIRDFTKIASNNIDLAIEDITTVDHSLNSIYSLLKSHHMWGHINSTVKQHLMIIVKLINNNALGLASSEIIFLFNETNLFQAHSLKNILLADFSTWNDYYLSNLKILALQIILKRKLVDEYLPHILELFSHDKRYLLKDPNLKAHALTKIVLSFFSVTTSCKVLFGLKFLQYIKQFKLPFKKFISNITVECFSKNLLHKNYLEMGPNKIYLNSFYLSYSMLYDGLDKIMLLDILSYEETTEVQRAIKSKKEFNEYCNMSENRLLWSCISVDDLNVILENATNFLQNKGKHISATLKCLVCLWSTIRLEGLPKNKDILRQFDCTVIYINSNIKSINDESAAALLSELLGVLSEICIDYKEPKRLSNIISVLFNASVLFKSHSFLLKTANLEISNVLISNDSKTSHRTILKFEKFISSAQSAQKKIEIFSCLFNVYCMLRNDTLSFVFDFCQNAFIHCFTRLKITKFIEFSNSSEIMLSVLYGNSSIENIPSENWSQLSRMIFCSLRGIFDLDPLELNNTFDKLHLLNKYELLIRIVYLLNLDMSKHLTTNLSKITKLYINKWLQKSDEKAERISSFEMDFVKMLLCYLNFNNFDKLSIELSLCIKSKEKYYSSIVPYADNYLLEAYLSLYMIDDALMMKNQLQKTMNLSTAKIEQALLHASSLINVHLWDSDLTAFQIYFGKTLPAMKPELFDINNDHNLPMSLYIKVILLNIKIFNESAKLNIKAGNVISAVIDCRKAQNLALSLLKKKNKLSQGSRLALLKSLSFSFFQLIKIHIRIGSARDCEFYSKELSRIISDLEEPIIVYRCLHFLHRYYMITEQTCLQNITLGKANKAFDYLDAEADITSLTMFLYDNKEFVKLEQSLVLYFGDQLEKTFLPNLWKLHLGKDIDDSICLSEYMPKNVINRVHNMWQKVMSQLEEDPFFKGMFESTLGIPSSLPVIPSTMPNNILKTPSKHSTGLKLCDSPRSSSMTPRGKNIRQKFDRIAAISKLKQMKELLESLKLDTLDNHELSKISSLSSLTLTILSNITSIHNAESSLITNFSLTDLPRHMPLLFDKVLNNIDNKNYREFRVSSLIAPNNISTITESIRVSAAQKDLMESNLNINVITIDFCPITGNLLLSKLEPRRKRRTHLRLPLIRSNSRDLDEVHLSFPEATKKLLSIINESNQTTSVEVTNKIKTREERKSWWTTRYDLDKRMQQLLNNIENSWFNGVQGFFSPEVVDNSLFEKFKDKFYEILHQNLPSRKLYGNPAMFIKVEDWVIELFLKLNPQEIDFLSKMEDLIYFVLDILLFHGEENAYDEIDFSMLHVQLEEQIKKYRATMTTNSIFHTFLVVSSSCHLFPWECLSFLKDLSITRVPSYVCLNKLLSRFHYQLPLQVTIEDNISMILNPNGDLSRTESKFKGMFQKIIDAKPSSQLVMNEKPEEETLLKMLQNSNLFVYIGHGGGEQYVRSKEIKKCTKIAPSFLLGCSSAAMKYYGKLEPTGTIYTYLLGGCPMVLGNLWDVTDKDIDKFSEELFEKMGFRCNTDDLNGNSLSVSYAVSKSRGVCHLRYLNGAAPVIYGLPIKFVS

B1: Pds1: yeast inhibitory protein binding Esp1; in vitro translated in reticulocyte lysate (protein)
chain: MMPANEDKENNIVYTGNESSGINFPQTPAHLLKRSHSNILKPPVRLDQLKRDANSNNGNTLKYIQGGKEVSPTKRLHTHAQQQGRLPLAAKDNNRSKSFIFPETSNQSKDADLPQLQNTLSIRKNDQLRKLSQISRSRSRANHNDLLSNSRKLQKYGSVLGYNALPKMKSLVLKDLADSGKNEESSDDDEGNEDSESKLGKKLQSALLKQDSSDGENELNGGLGLFNEQGGLQQLIKNSTKNEQKTKNDKSDKTDDYDIEIAPQRQEPLPYVPEGYSPFQQDDIEKLKTFNSPYKLDLEDEDDTPDKVDLLPLEQIDEEGEKDETECITRNQEEGAALPLLSKNFKEVAAVPTMELVYSEEGLDPEELEDLVT
With B1, the “Esp1-dependent in vitro cleavage of Scc1p” value is recorded as “inhibited”.
